Experimental data published in US20250248992A1, “INNATE IMMUNE-ACTIVATING DRUG AND USE THEREOF” (LUODA BIOPHARMA (SUZHOU) CO., LTD., priority 2021, published 2025).

Tested on: OVA-specific antibodies in serum
Assay: Immune adjuvant activity with ovalbumin (OVA), serum antibody ELISA
Format: in vivo, mice
Settings: OVA alone, intramuscular, Day 0, 7, 14, serum Day 21

B1: ovalbumin (protein, UniProt P01012 2-386, looked up)
Ovalbumin: GSIGAASMEFCFDVFKELKVHHANENIFYCPIAIMSALAMVYLGAKDSTRTQINKVVRFDKLPGFGDSIEAQCGTSVNVHSSLRDILNQITKPNDVYSFSLASRLYAEERYPILPEYLQCVKELYRGGLEPINFQTAADQARELINSWVESQTNGIIRNVLQPSSVDSQTAMVLVNAIVFKGLWEKAFKDEDTQAMPFRVTEQESKPVQMMYQIGLFRVASMASEKMKILELPFASGTMSMLVLLPDEVSGLEQLESIINFEKLTEWTSSNVMEERKIKVYLPRMKMEEKYNLTSVLMAMGITDVFSSSANLSGISSAESLKISQAVHAAHAEINEAGREVVGSAEAGVDAASVSEEFRADHPFLFCIKHIATNAVLFFGRCVSP
notes: Antigen ovalbumin (OVA) used for immunization of mice
protective humoral immune response after immunization: did not generate a protective humoral immune response
